Test results published in the nanobody polyreactivity screen of Harvey et al. (2022).

Assay: yeast display, Sf9 membrane polyspecificity reagent, FACS + sequencing; frameworks hold sequencing errors
Method in brief: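 In a synthetic yeast display library (Saccharomyces cerevisiae BJ5465), nanobody expression was induced with galactose for 36–48 hours. FACS gates were set low and high (top ~1%) using anti-HA fluorescence for expression and streptavidin fluorescence for binding of the Sf9 membrane reagent. Each polyreactivity label is drawn from the gate of origin.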

Sequence	polyreactivity (PSR sort gate)
QVQLVESGGGLVQAGGSLRLSVAASGRTFYSYSMGWYRQAHGKERELVASITNGETKNYADSVKGRFTISRDNAKNTVYLQMNSLKPEDTAVYYCAADDSSRTTYDYWGQGTQVTVSS	low polyreactivity
QVQLVESGGGLVQAGGSLRLSWAASGFIFDPNAMGWYRQAPGKERDLVAAISSSGGRTYYADSVKGRFTISRDNAKNTVYLQMNSLKPEDTAVYYCATDTSVQGQEYDYWGQGTQVTVSS	low polyreactivity
QVQLVESGGGLVQAGGSLRLSWAASGGTFVPYAMGWYRQAPGTERELVARISKRGGTTYYADSVKGRFTISRDNAKYTVYLQMNSLKPEDTAVYYCAAVLPARGYYWGQGTQVTVSS	high polyreactivity
QVQLVESGGGLVQAGGSLRLSWAASGITFDLYAMGWYRPAPGKEREFVATISWTGGTTYYADSVKGRFTISRDNAKNTVDLQMISLKPEVPAASYCNKGSDFFWYDYDYCGQGTQVTVSS	low polyreactivity
QVQLVESGGGLVQAGGSLRLSWAASGRIFASYAMGWYRQATGKERELVAAISGSGGSTYYADSVKGRFTMSRDNAKKTVYLQLNSLKPEDTAVYYCAARYRSYWYRYVGYDYWGQGTQVNVSS	high polyreactivity
QVQLVESGGGLVQAGGSLRLSWAASGRTFQYYTMGWYRQAPGKERELVAAISTGGSTHYADSVKGRFTISRDNAKNTVYLQMNSLKPEDTAVYYCAALWSRRRSRPRFPGDYWGQGTQVTVSS	high polyreactivity
QVQLVESGGGLVQAGGSLRLSWAASGSIFYQNPMGSYRQAPGKERELVAAISSAGSTYYADSVKGRFTISRDNAKNTVYLQMNSLKPADTAVYYCAADDLGWWFYSGGEDYYYWGQATQVTVSS	low polyreactivity
QVQLVESGGGLVQAGGSLRLSWAASGSISGFNAMGWYRQAPGKERELVAAISYSGGRTYYADSVKGRFTISRDNAKNNVYLHMNSLKPEDTAVFYCAADKFMYSKYTVFRDVYWGQGTQVTLSS	high polyreactivity
QVQLVESGGGLVQAGGSLRLSWAASGSTFAWYAMGWYRQAPGKDRELVATISSGGSTYYADSVKGRFTISRDNAKNTVYLQMNSLKTEDTAVYYCAADYLTPWVYWFSYGLDYWGQGTQVTVSS	low polyreactivity
QVQLVESGGGLVQAGGSLRLSWAASGSTFAYNDMGWYRQAPGKERELVASITSGGSTNYADSVKGRFTISRDNAKNTVYLQMNSLKPEDTAVYYCAARVRYRFDYWGQGTQVTVSS	low polyreactivity
QVQLVESGGGLVQAGGSLRLSWAASGSTFNVYAMGWYRQAPGKERELVAGIRDSDGSTNYADSVKGRFTISRDNAKNTVYLQMNSLKPEDTAVYYCAADLYDINWSVWLDYWGQGTQVTVSS	low polyreactivity
QVQLVESGGGLVQAGGSLRLSWAASGSTFVVNAMGWYRQAPGKERELVAAITQDGDGTYYADSVKGRFTISRDNAKNTVYLQMNSLKPEDTAVYYCAAYPFYGPYDEFDYWGQGTEVTVSS	low polyreactivity
QVQLVESGGGLVQAGGSLRLSWAASSIFRTYAMGWYRQAPGKERELVAAITWSGASTNYADSVKGRFTISRDNAKNTVYLQMNSLKPEDTAVYYCNADWRYYPSFKYYYWGQGTQVTVSS	high polyreactivity
QVQLVESGGGLVQAGGSLRLSYAASGSTFRVYAMGWYRPATGKERELVAAISRSGGRTYYADSVKGRFTISRDNAKNTVYLQMNSLKPEDTAVYYCAADYKYTAVSDDYWGQGTQVTVSS	high polyreactivity
QVQLVESGGGLVQAGGSLRLTCAASGFIFGYNAMGWYRQAPGKERELVAAISSSGGSTYYADSVKGRFTISRDNAKNTVSLQMNSLKPEDTAVYYCAARPVALRKYDYWGQGTQVTVSS	low polyreactivity
QVQLVESGGGLVQAGGSLRLTCAASGFIFRYYAMGWYRQAHGKEMELVAAIDYSGGSTNYADSVKGRFTISRDNSKNTVYLQMNSLKPEDTAVYYCKAEYTWHRGYDYWGLGTQVTVSS	low polyreactivity

Sequence	polyreactivity (PSR sort gate)
QVQLVESGGGLVQAGGSLRLTCAASGFTFNRYTMGWYRQAPGKERELVAAITRSGGSTYYADSVKGRFTISRDNAKNTVDLQMNSLKPEDTAVYYCAAPSYLVAGYGYWGQGTQVTLSS	high polyreactivity
QVQLVESGGGLVQAGGSLRLTCAASGFTFPSYPMVWYRQAPGKERELVAAITRSGVRTYYADSVKGRFTISRDNAKNTVYFQMNSLKPEDTAVYYCAAVYPRQVSQVWRDDFWGQGTQVTVSS	high polyreactivity
QVQLVESGGGLVQAGGSLRLTCAASGFTFRYYAMGWYRQAPGKERELVASITGGGRTYYADSVKGRFTISRDNAKNTVYLQMNSLKPEDTAVYYCATLLAYRLGSGYDSWGQGTEVTVSS	high polyreactivity
QVQLVESGGGLVQAGGSLRLTCAASGFTFSQYVMGWYRQAPGKERELVAAISYRGGSTYYADSVKGRFTISRDKAKNTVYLQLNSLKPEDTAVYYCAAVAYSWHNRYDYWGQGTQVTVSS	high polyreactivity
QVQLVESGGGLVQAGGSLRLTCAASGFTFTGNAMGWYRQAPGKEREFVAAISWSGGSTYYADSVKGRFTISRDNAKNTVYLQMNSLKPEDTAVYYCNKYRPYGRIYHLAYGRDYWGQGTQVTVSS	high polyreactivity
QVQLVESGGGLVQAGGSLRLTCAASGFTFWWYTMGWYRQATGKERELVATITSGGRTNYADSVKGRFTISRDNAKNTVYLQMNSLKPEDTAVYYCNRVAYYSRYDTDDYWGQGTQVTVSS	high polyreactivity
QVQLVESGGGLVQAGGSLRLTCAASGFTIAWNAMGWYRPSPGKERELVAAISAGGGSTYYADSVKGRFTISRDNAKNTVYLQMNSLKPEDTAVYYCAARRTFKYGSYAYYYWGQGTQVTVSS	high polyreactivity
QVQLVESGGGLVQAGGSLRLTCAASGGIFSYNAMGWYRQAPGKERELVAAISDSSTRTYYADSVKGRFTISRDNAKNTVYLQIKSLKPEDTAVYYCAARHSRTRHTSDYWGQGTQVTVSS	high polyreactivity
QVQLVESGGGLVQAGGSLRLTCAASGGIFYKYAKGWYRQAPGKEMELVAAITGRGGSTNYADSVKVRFTISRDNAKNTVYLQMNSLKPEDTAVYYCAARYTPTWSYGYWGQGTQVTVSS	low polyreactivity
QVQLVESGGGLVQAGGSLRLTCAASGIIFRVYAMGWYRQATGKERELVAAISQRGGSTYYADSVKGRFTISRDNAKNTVYLLMNSLKPEDTAVYYCAATAPAAAYRARYGYDYWGQGTQVTVSS	high polyreactivity
QVQLVESGGGLVQAGGSLRLTCAASGITFGGYAMGWYRQAPGKERELVATITSGGSTYYADSVKGRFTISRDNAKNTVYLQMNSLKPEDTAVYYCNAVYNYWFWGGYWHRPNARGDYWGQGTQVTVSS	high polyreactivity
QVQLVESGGGLVQAGGSLRLTCAASGITFVYNAMGWYRQAPGKERELVAAISWRGGSTYYADYVKGRFTISRDNAKNTVYLQMNSLKPEDTAVYYCNNLPTYPDYGYDSWGQGTQVTVSS	high polyreactivity
QVQLVESGGGLVQAGGSLRLTCAASGLIFGYNAMGWYRQAPGKEREFVAGISVIDGRTYYADSVKGRFTISRDNAKNTVYLQMISLKPEDTAVYYCAADRWYKYYFLTYGYWGQGTQVTVSS	low polyreactivity
QVQLVESGGGLVQAGGSLRLTCAASGLSSLRMLWDGIDRRLGKKGSWLPLLTSGGDSTNYADSVKGRFTISRDTAKNTVYLQIISLKPEDTAVYYCAADLDYPYGYWGQGTQVTVSS	low polyreactivity
QVQLVESGGGLVQAGGSLRLTCAASGLTFPSYSMGWYRQAPGKERELVAAIYYSGGSTYYADSVKGRFTISRDNAKITVYIHMNSLKPEDTAVYYCAADFTSFFNRIDYWGQGTQVTVSS	low polyreactivity
